Reference: patent US20250092426, “CAS ENDONUCLEASES AND RELATED METHODS” (Flagship Pioneering Innovations VII, LLC, published 2025)

Molecular target: T1, CasEnd-33 (synthetic construct)
T1 chain: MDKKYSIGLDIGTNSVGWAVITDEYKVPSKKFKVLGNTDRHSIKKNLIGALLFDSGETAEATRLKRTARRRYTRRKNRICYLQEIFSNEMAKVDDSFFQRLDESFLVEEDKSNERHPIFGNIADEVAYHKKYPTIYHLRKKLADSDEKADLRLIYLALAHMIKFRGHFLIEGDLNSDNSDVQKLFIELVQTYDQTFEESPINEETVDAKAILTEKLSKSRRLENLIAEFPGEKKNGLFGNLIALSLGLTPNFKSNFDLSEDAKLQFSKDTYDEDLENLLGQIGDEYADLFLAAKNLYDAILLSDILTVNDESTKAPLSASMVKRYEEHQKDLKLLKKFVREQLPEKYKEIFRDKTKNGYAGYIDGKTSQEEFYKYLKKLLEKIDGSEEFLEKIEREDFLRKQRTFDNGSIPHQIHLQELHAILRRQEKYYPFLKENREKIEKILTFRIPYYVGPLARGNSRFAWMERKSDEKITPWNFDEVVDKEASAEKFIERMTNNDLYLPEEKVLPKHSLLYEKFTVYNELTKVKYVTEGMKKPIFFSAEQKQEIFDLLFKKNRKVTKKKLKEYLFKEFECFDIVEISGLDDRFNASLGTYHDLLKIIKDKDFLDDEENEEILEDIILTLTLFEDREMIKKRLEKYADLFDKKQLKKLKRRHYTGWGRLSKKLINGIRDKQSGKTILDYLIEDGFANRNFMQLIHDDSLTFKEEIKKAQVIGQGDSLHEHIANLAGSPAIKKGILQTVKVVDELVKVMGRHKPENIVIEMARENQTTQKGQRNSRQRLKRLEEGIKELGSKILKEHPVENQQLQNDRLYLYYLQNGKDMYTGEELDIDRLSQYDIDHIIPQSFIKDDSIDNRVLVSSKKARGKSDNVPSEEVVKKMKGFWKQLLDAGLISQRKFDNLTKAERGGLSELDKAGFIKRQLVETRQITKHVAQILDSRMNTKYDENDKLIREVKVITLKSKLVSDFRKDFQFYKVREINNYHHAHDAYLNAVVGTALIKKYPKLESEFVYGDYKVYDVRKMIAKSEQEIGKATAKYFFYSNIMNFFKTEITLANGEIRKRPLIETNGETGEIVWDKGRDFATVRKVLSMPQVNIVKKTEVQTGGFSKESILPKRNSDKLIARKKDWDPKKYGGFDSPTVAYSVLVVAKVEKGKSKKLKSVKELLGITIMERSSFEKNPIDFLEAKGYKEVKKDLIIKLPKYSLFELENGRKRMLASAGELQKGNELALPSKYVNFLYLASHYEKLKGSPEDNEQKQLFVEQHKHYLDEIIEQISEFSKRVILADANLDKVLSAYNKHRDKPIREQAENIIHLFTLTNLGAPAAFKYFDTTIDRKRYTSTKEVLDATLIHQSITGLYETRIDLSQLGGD
Experiment: cell_activity; +++; HEK293T; PAM not stated
Description: The ability of the candidate endonucleases, including endonucleases 1-38 (CasEnds 1-38) (set forth in Table 1 and SEQ ID NOS: 1-38, respectively), to mediate target nucleic acid editing was assessed utilizing a blue fluorescent protein (BFP) to green fluorescent protein (GFP) conversion assay, wherein programmed nucleotide editing of the BFP gene was measured by the expression of GFP (signifying the conversion of […] via the programmed nucleotide edit in the BFP gene). The conversion assay was conducted utilizing the reverse transcriptase-based system (as described above in Example 2) comprising a template RNA (designed to convert BFP to GFP) and a fusion protein comprising a retroviral reverse transcriptase and the individual subject Cas endonuclease. The amino acid sequence of the base portion of the fusion protein (without the individual subject Cas endonuclease) is set forth in Table 7 (SEQ ID NO: 43).
Briefly, 200 ng of plasmid DNA encoding the subject fusion protein (containing one of the subject CasEnds) and 200 ng of template RNA (in plasmid format) were added to 25 μL SF buffer containing 250,000 HEK293T BFP-expressing cells. Nucleofection was mediated utilizing program DS-150. The day of nucleofection was marked as day 0. At day 4, the cells were harvested and analyzed by flow cytometry to assess the level of BFP and GFP expression in HEK293T cells. Cells having GFP signal were defined as having undergone a successful editing event, and the percent of cells that were GFP+ on day 4 was used to determine the performance of each Cas endonuclease.

B1: BFP-to-GFP template RNA ; BFP reporter protospacer (ssRNA ; dsDNA)
RNA: GCCGAAGCACUGCACGCCGUGUUUUAGAGCUAGAAAUAGCAAGUUAAAAUAAGGCUAGUCCGUUAUCAACUUGAAAAAGUGGCACCGAGUCGGUGCACCCUGACGUACGGCGUGCAGUGCUU
DNA 1: GCCGAAGCACTGCACGCCGT
DNA 2: ACGGCGTGCAGTGCTTCGGC
In the case of B1, the activity is reported as ≥ 100 % of reference.
